# US12594347B2, “Nanoparticulate drug delivery systems” (Duke University, priority 2018, dated 2026)
# Where “and” joins values, the source holds several entries; their conditions need not be identical. Equal entries are not always repeated.
# B1: ABDN-CP-DOX (conjugate)
# chain: LAEAKVLANRELDKYGVSDYYKNLINNAKTVEGVKALIDEILAALPVPGAGVPGAGVPGAGVPGAGVPGAGVPGAGVPGAGVPGAGVPGAGVPGAGVPGAGVPGAGVPGAGVPGAGVPGAGVPGAGVPGAGVPGAGVPGAGVPGAGVPGAGVPGAGVPGAGVPGAGVPGAGVPGAGVPGAGVPGAGVPGAGVPGAGVPGAGVPGAGVPGAGVPGAGVPGAGVPGAGVPGAGVPGAGVPGAGVPGAGVPGAGVPGAGVPGAGVPGAGVPGAGVPGAGVPGAGVPGAGVPGAGVPGAGVPGAGVPGAGVPGAGVPGAGVPGAGVPGAGVPGAGVPGAGVPGAGVPGAGVPGAGVPGAGVPGAGVPGAGVPGAGVPGAGVPGAGVPGAGVPGAGVPGAGVPGAGVPGAGVPGAGVPGAGVPGAGVPGAGVPGAGVPGAGVPGAGVPGAGVPGAGVPGAGVPGAGVPGAGVPGAGVPGAGVPGAGVPGAGVPGAGVPGAGVPGAGVPGAGVPGAGVPGAGVPGAGVPGAGVPGAGVPGAGVPGAGVPGAGVPGAGVPGAGVPGAGVPGAGVPGAGVPGAGVPGAGVPGAGVPGAGVPGAGVPGAGVPGAGVPGAGVPGAGVPGAGVPGAGVPGAGVPGAGVPGAGVPGAGVPGAGVPGAGVPGAGVPGAGVPGAGVPGAGVPGAGVPGAGVPGAGVPGAGVPGAGVPGAGVPGAGVPGAGVPGAGVPGAGVPGAGVPGAGVPGAGVPGAGVPGAGVPGAGVPGAGCGGCGGCGGCGGCGGCGGCGGCGG
# Tests used:
# [1] = target: mouse serum albumin (MSA) (Mus musculus, UniProt P07724); experiment: Isothermal titration calorimetry (VP-ITC) of polypeptide carriers and DOX micelles with mouse albumin; format: binding; settings: PBS pH 7.4, 37° C.
# Chain of mouse serum albumin (MSA) (P07724 25-608): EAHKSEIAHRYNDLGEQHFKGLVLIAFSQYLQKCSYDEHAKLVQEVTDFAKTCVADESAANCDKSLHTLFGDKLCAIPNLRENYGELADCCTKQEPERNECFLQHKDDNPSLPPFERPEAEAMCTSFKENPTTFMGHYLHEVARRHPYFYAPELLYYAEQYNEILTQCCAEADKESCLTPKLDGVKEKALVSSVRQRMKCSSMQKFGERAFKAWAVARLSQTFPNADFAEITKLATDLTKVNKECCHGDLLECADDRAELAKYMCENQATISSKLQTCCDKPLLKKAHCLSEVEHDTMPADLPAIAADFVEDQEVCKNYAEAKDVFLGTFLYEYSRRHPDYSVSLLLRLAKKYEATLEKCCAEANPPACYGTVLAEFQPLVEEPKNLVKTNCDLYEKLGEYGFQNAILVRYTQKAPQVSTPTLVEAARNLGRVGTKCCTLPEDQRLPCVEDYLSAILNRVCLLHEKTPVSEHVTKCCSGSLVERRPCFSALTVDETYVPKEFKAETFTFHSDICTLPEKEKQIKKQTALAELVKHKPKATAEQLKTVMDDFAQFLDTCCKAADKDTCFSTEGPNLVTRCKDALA
# Protocol: Interaction with albumin. Interaction of CP monomers and micelles with human and mouse albumin was analyzed by isothermal titration calorimetry (ITC).
# [2] = Pharmacokinetics of CP-DOX and ABDN-CP-DOX micelles in mice; format: in vivo; settings: Balb/C mice; for Apparent distribution volume VD / Distribution half-life β t1/2 / Elimination rate constant kg / Plasma clearance CL / Plasma to tissue rate constant kpt / Tissue to plasma rate constant ktp / Area under the curve AUC / Elimination half-life α t1/2: tail vein; for Area under the curve AUC / Elimination half-life α t1/2: plasma DOX
# Protocol: The isopropanol extract was then centrifuged (14,000 RPM, 10 min, 4° C.) and 125 uL of the supernatant was loaded onto a black 96-well plate (BD Biosciences) in duplicate.
# [3] = Canine hematology one week after administration; format: in vivo, dogs (beagles and hounds); settings: dogs
# Source text: Canine pharmacokinetics and toxicities. […] If noted, supportive care was provided.
# [4] = pH dependent drug release
# Protocol: pH dependent drug release. […] Samples were incubated at 37° C. for 0.0, 0.25, […], 0.5, 1, 2, 4, 6, or 24 hr and were neutralized by addition of pH 7.4 (0.1 M NaH2PO4). […] Eluting peaks were detected with a UV-Visible detector set at 490 nm. […] HPLC data was quantified by integrating the area under the peak corresponding to the free drug. […] For pH 5.0 samples, data points were fit by nonlinear regression to a first order release model: F %, released=a[1−exp(−ln(2) t/t1/2)] (1) where t is the time (hrs) after incubation, t1/2 is the half-life (hrs) of release, and a (%) is the maximum extent of drug release.
# [5] = Thermal turbidimetry (transition temperature); format: physicochemical; settings: PBS (FIG. 8D)
# Protocol: Thermal Turbidimetry. Thermal profiles of CPs and CP conjugates were determined by measuring the transition temperature (Tt) over a range of concentrations (5, 10, 25, 50, and 100 uM) in PBS, FBS, and MS using a Cary UV-visible spectrophotometer equipped with temperature controller (Agilent Technologies, CA, USA). […] The transition temperature was defined as the maximum first derivative of the optical density.
# [6] = Dynamic and static light scattering; format: physicochemical; settings: for Rh / Nagg / Rg: PBS; for Nagg / Rg: SLS
# Protocol: Light Scattering. Dynamic and static light scattering measurements were performed using an ALV/CGS-3 goniometer system (Germany). […] To study the effect of albumin binding on micellar self-assembly, mouse albumin was added to the samples at 1:1 albumin-CP molar ratio in PBS. Measurements were obtained at 25° C. and 37° C. for angles between 30-150° at 5° increments with each angle consisting of 3 runs and 10 s each at each run. Hydrodynamic radius (Rh) was determined by dynamic light scattering. The radius of gyration (Rg) and the average molecular weight of the particle (MW) were calculated from the slope and intercept of a partial Zimm plot, respectively, using ALV/Dynamic and Static FIT and PLOT software and according. The micelle aggregation number Nagg, or the number of polypeptide chains per nanoparticle, was calculated by dividing the micelle molecular weight by the molecular weight of the polypeptide monomer.
# Size and morphology of CP conjugated micelles. The radius and the aggregation number of the self-assembled micelles were determined, in the presence and absence of albumin, by dynamic and static light scattering at 37° C. using an ALV/CGS-3 goniometer system (Germany). Freeze fracture electron microscopy was performed to visualize the micelles and estimate their radius and morphology.
# [7] = Biodistribution in C26 tumor-bearing mice; format: in vivo, Balb/C mice; settings: 2 h and 24 h time points
# Protocol: (§1) Cell culture and tumor inoculation.
# Biodistribution. […] At 2 and 24 h after injection, tissues (tumor, muscle, heart, lung, liver, spleen and kidney) were removed, weighed and suspended in 1.0 mL acidified isopropanol (75 mM HCl, 10% water, 90% isopropanol). Tissues were then homogenized using 2 mm diameter zirconia beads and a MiniBeadbeater-1TM (Biospec; Bartlesville, OK) for 2 min at 5,000 beats per minute and were incubated overnight at 4° C. in the dark. The isopropanol extracts were then vortexed, and centrifuged (14,000 RPM, 10 min, 4° C.) and 125 uL of the supernatant was loaded onto a black 96-well plate (BD Biosciences) in duplicate. […] To correct for background tissue fluorescence, tissues were removed from three untreated control mice and were processed similarly. For each tissue, a background (counts per mg tissue) curve was created using 2-fold dilutions of the processed tissues in acidified isopropanol.
# C26 tumors = experiment: Tumor regression and survival, C26 colon cancer model; format: in vivo, Balb/C mice
# Protocol: as §1
# Tumor regression and survival. […] Tumor size and body weight were monitored over a span of two months. Tumor volume was calculated as follows: Volume [mm^3]=length×width 2×π/6. Mice with a tumor volume greater 1000 mm^3 or body weight loss greater than 15% were euthanized.
# [8] = tested on: C26 murine colon adenocarcinoma cells
# Protocol: C26 murine colon adenocarcinoma cells were seeded (5000 cells/well) in a 96-well plate. After 24 h, cells were treated in triplicate with 3-fold serial dilutions of drugs beginning with 100 uM. After 72 h incubation, 20 μL of CellTiter 96 AQueous™ (Promega; Madison, WI) 3-(4,5-dimethlthiazol-2-yl)-5-(3-carboxymethoxphenyl)-2-(4-sulfophenyl)-2H-tetrazolium (MTS) reagent was added to each well followed by 3 h incubation at 37° C. The absorbance at 490 nm was determined using a Victor3™ microplate reader (Perkin Elmer; Waltham, MA). For each plate, blank wells (with no cells) were defined as 0% viability and wells treated with PBS were defined as 100% viability. The background absorbance at 490 nm was corrected by subtracting the average absorbance of the blank wells from each well. The percent viability was defined as the absorbance of each well normalized to the absorbance of wells treated with PBS. Inhibitory concentration (IC 50) values were calculated using a four-parameter logistic fit in the Prism program (GraphPad Software, San Diego, CA, USA).
# [9] = printed 'at the dose of 10 mg/kg BW DOX equivalent' (first statement of b160)
# [10] = one week after administration, individual subjects
molecule,measurement,setting,value
B1,binding stoichiometry N,[1],1.01±0.00
same,Apparent distribution volume VD,[2]; 10 mg/kg BW DOX equivalent,0.34 ± 0.01 mL/g
same,Distribution half-life β t1/2,[2]; 10 mg/kg BW DOX equivalent,0.207 ± 0.0233 h
same,Elimination rate constant kg,[2]; 10 mg/kg BW DOX equivalent,0.10 ± 0.01 h⁻¹
same,Plasma clearance CL,[2]; 10 mg/kg BW DOX equivalent,0.013 ± 0.000 mL/h/g
same,Plasma to tissue rate constant kpt,[2]; 10 mg/kg BW DOX equivalent,2.08 ± 0.27 h⁻¹
same,Tissue to plasma rate constant ktp,[2]; 10 mg/kg BW DOX equivalent,1.22 ± 0.13 h⁻¹
same,Area under the curve AUC,[2]; 10 mg/kg BW DOX equivalent,1400.4 ± 34.2 µM·h
same,Elimination half-life α t1/2,[2]; 10 mg/kg BW DOX equivalent,18.3 ± 0.6 h
same,Apparent distribution volume VD,[2]; 20 mg/kg BW DOX equivalent,0.25 ± 0.11 mL/g
same,Distribution half-life β t1/2,[2]; 20 mg/kg BW DOX equivalent,1.2 ± 0.292 h
same,Elimination rate constant kg,[2]; 20 mg/kg BW DOX equivalent,0.08 ± 0.00 h⁻¹
same,Plasma clearance CL,[2]; 20 mg/kg BW DOX equivalent,0.011 ± 0.000 mL/h/g
same,Plasma to tissue rate constant kpt,[2]; 20 mg/kg BW DOX equivalent,0.25 ± 0.07 h⁻¹
same,Tissue to plasma rate constant ktp,[2]; 20 mg/kg BW DOX equivalent,0.29 ± 0.07 h⁻¹
same,Area under the curve AUC,[2]; 20 mg/kg BW DOX equivalent,3328.5 ± 100.3 µM·h
same,Elimination half-life α t1/2,[2]; 20 mg/kg BW DOX equivalent,17.5 ± 0.8 h
same,linearity of pharmacokinetics (in words),[2]; 10 vs 20 mg/kg BW DOX equivalent,linear pharmacokinetics
same,bioavailability i.e. AUC,[2]; [9],3328.5 ± 100.3 µM·h
same,half-life,[2]; [9],17.5 ± 0.8 h
same,Abonormal Lymphs,[3]; [10],0.157 10^3/μL and 0.561 10^3/μL
same,Hematocrit,[3]; [10],42.7% and 43.9%
same,Hemoglobin,[3]; [10],14.7 g/dL and 14.6 g/dL
same,Lymphocytes,[3]; [10],1.572 10^3/μL and 1.122 10^3/μL
same,MCH,[3]; [10],24.6 pg and 23.6 pg
same,MCHC,[3]; [10],34.3 g/dL and 33.2 g/dL
same,MCV,[3]; [10],71.7 fL and 71 fL
same,MPV,[3]; [10],12.2 fL and 11.9 fL
same,Monocytes,[3]; [10],0.314 10^3/μL and 0.21 10^3/μL
same,PCT,[3]; [10],0.28% and 0.25%
same,Packed Cell-Volume,[3]; [10],42%
same,Plasma Protein,[3]; [10],6.2 g/dL and 5.8 g/dL
same,Platelets,[3]; [10],228 X10^3/μL and 208 X10^3/μL
same,RBC,[3]; [10],5.97 X10^6/μL and 6.19 X10^6/μL
same,RDW,[3]; [10],12.8% and 11.7%
same,Reticulocyte #,[3]; [10],0.025 X10^6/μL and 0.014 X10^6/μL
same,Reticulocyte %,[3]; [10],0.43% and 0.23%
same,Reticulocyte Absolute,[3]; [10],25000 µL⁻¹ and 14000 µL⁻¹
same,Segmented Neutrophils,[3]; [10],5.502 10^3/μL and 4.276 10^3/μL
same,WBC,[3]; [10],7.86 X10^3/μL and 7.01 X10^3/μL
same,abnormalities in blood hematology (in words),[3]; one week after infusion,no hematology or serum chemistry abnormalities
same,in vitro drug release (in words),"[4]; acidic conditions, pH 5.0, 37° C.",released the loaded DOX
same,in vitro drug release / stability (in words),"[4]; pH 7.4, 37° C.",remained stable
same,transition temperature after drug (DOX) conjugation,[5],44 °C
same,ρ = Rg/Rh,[6]; 22 ° C.,0.62
same,Rh,"[6]; 22 ° C., DLS",59.0 nm and 59.00 nm
same,Nagg,[6]; 22 ° C.,34.97
same,Rg,[6]; 22 ° C.,36.95 nm
same,ρ = Rg/Rh,[6]; 37 ° C.,0.766
same,Rh,"[6]; 37 ° C., DLS",45.63 nm
same,Nagg,[6]; 37 ° C.,42.04
same,Rg,[6]; 37 ° C.,34.97 nm
same,nanoparticle formation (in words),[6]; DLS,form nanoparticles
same,aggregation (in words),[6]; body temperature (37° C.),remain aggregate-free
same,aggregation (in words),[6]; room temperature (25° C.),Neither ABDN-CP-DOX nor ABDH-CP-DOX conjugates aggregate
same,distribution to organs of the reticuloendothelial system i.e. liver and spleen (in words),[7],significantly smaller than that of CP-DOX micelles
same,tumor bearing mice that survived 60 days after treatment,C26 tumors; DOX equivalent dose of 20 mg/kg BW,50%
same,tumor growth (in words),"C26 tumors; mouse C26 colon cancer model, single treatment on day 0",significantly slower
same,IC50,[8],310 nM
